Assay results as given in the DeepSol protein solubility set.

Test: soluble on expression in E. coli; label from the status in PepcDB or PDB records

| Sequence | soluble on expression in E. coli |
| --- | --- |
| MTEEQFSSYHPPLPPTTEEDRFSWLRLLRSRRVGPTTFRRLMHEHGTAQNALAALPEVARAAGVEGYEICPPGVVEAELKAAKAAKARLLCLGDADYPSHLAGISDAPPLLWLLGDPALLRRPMIALVGARNASSLGTRMARALAQDLGTAGFVVVSGLARGIDTAAHLAALPSGTIAVMAGGVDTVYPAENTHLAADIAQHGLRLSEQPMRLTPQARHFPRRNRIISGLAQAVVVVEAAAKSGSLITARDALDQGREVLAVPGHPFDARAAGCNMLIRDGAHLVRNAEDVITALPALTAPQPQPDLCDLMQQPAPPAKRSLRETVALHSLILDRLGPSPVAEDQLIRDLAASPGEVAPVLVDLELEGRINRQAGGLLSRVN | not soluble |
| MTEFQLEKAATLKTIAIRAKKVGEMVDFYKKVMGFVLKSEENNLSIWGTREAGTQLLILEETRKAEDFHNEEKQMAYFSIKVPTEKEFLQIAQRVLEQDYPIDESFQIGTRQSMFITDLEGNQFEIFHDEATANSTSEKQPIVLKDLISEDLEPHQGLAAGSYLAHVQLKTNNQKEIKAYYEEVLGLKRNEKDQFVLEDGKATIGFQKPETSEVDQLPDPHLGLDFFTIKLSDQEHILAMEQQLTAKNQEFFIDQKKAIVTVFDPIGLEWWFVLK | not soluble |
| MTEKALDSKQTGYCLSTDHYRIRRALPSDYDSILALWEDARHTMLASDNPQWQGAYPGETEAQEDIARGEAFLLDIAGTPLGVMAVNDQMPAEYGSLPWQTEGKAYTIHRLGVHSSLLRKGYAAAMLFSAETIAREQGGTCIRIDTYSPNTAAQSLFRRLGYRQVCSFHMKQKPLPYIAFEKSLLKQLGSG | not soluble |
| MTELARLKFYATQPHPCSYLPEEQATTLFLDPSQPMDTQLYASLSEVGFRRSGDHLYRPHCQHCTACIAARIPVADFSPNRQQRRILKRNAELQVIRKRPSFNEEYYDLYRRYIEQRHADGDMYPPSRDQFATFLVRDLPFCCFFEFRLHGRLLAIAVTDVLPNGLSAVYTFYDPDEEQRSLGRYAILWQIAETERLGLQAVYLGYWIKNCRKMNYKTQYRPIELFVNQRWVALTLEHHHHHH | not soluble |
| MTELKLIHIFTDGSCLGNPGPGGYGIVMKYKGHTKEMSGGFSLTTNNRMELLAPIVALEALKEPCKIILTSDSQYVRQGIMTWIHGWKKNGWMTSNGTPVKNVDLWKRLDKAAQLHQIDWRWVKGHAGHAENERCHQLARAAAEANPTQIDTGYQAES | soluble |
| MTELRVYLLIEALQPQFAACLSSPTRARGYPAFAGQSSLIIEVSPALAIHRVTDLALKSAPAMEPGILYTERQFGLLELHADSLEKLNAAGQAILDGMGAKPEDQLKPQILYHDIIENLSDQHAIILNRSREASILVPGVALLIYEMAPALFACVAANEAERAVPRAVINDVQMMGATGRVFMSGSLAEMRLARETITAKLESIPGRQ | not soluble |
| MTEMELKLIKIDTSHYFEKKPGLGERVDYAGRCFYNKFQRVNAMLTSSLIQKHLKREIEIAHNLILRNDKVENIVFDYNGRNPERFYHKAQLLLREEGFMNFTAYNTKTPGHLHLYVHKGHTELGEGERLVKTLSMKLAQGLPKEWKVFPSNEWPKEFNILALPYEVFAKERGSSWAKHL | soluble |
| MTENAQDKARQAVETVVKSPELVEQILSDEYVQIMIARCFHSGPLPPPSDLAQYNDIISNGADRIMAMAEKEQAVRHETIRQDQTFNRRGQ | not soluble |
| MTENVVCTGAVNAVKEVWEKRIKKLNEDLKREKEFQHKLVRIWEERVSLTKLREKVTREDGRVILKIEKEEWKTLPSSLLKLNQLQEWQLHRTGLLKIPEFIGRFQNLIVLDLSRNTISEIPPGIGLLTRLQELILSYNKIKTVPKELSNCASLEKLELAVNRDICDLPQELSNLLKLTHLDLSMNDFTTIPLAVLNMPALEWLDMGSNKLEQLPDTIERMQNLHTLWLQRNEITCLPQTISNMKNLGTLVLSNNKLQDIPVCMEEMANLRFVNFRDNPLKLKVSLPPSEGTDEEEERELFGLQFMHTYIQESRRRADHQVNGSTTLPISINTDG | soluble |
| MTEPDVAGAPASKPEPASTGAASAAQLSGYSRVLLKLGGEMFGGGQVGLDPDVVAQVARQIADVVRGGVQIAVVIGGGNFFRGAQLQQLGMERTRSDYMGMLGTVMNSLALQDFLEKEGIVTRVQTAITMGQVAEPYLPLRAVRHLEKGRVVIFGAGMGLPYFSTDTTAAQRALEIGADVVLMAKAVDGVFAEDPRVNPEAELLTAVSHREVLDRGLRVADATAFSLCMDNGMPILVFNLLTDGNIARAVRGEKIGTLVTT | soluble |
| MTEPWIAFPPEVHSAMLNYGAGVGPMLISATQNGELSAQYAEAASEVEELLGVVASEGWQGQAAEAFVAAYMPFLAWLIQASADCVEMAAQQHVVIEAYTAAVELMPTQVELAANQIKLAVLVATNFFGINTIPIAINEAEYVEMWVRAATTMATYSTVSRSALSAMPHTSPPPLILKSDELLPDTGEDSDEDGHNHGGHSHGGHARMIDNFFAEILRGVSAGRIVWDPVNGTLNGLDYDDYVYPGHAIWWLARGLEFFQDGEQFGELLFTNPTGAFQFLLYVVVVDLPTHIAQIATWLGQYPQLLSAALTGVIAHLGAITGLAGLSGLSAIPSAAIPAVVPELTPVAAAPPMLAVAGVGPAVAAPGMLPASAPAPAAAAGATAAGPTPPATGFGGFPPYLVGGGGPGIGFGSGQSAHAKAAASDSAAAESAAQASARAQARAARRGRSAAKARGHRDEFVTMDMGFDAAAPAPEHQPGARASDCGAGPIGFAGTVRKEAVVKAAGLTTLAGDDFGGGPTMPMMPGTWTHDQGVFDEHR | not soluble |
| MTESVFAVVVTHRRPDELAKSLDVLTAQTRLPDHLIVVDNDGCGDSPVRELVAGQPIATTYLGSRRNLGGAGGFALGMLHALAQGADWVWLADDDGHAQDARVLATLLACAEKYSLAEVSPMVCNIDDPTRLAFPLRRGLVWRRRASELRTEAGQELLPGIASLFNGALFRASTLAAIGVPDLRLFIRGDEVEMHRRLIRSGLPFGTCLDAAYLHPCGSDEFKPILCGRMHAQYPDDPGKRFFTYRNRGYVLSQPGLRKLLAQEWLRFGWFFLVTRRDPKGLWEWIRLRRLGRREKFGKPGGSA | soluble |
| MTFGRLWEKFLASAYYSDLSPRTQKDYLQHQKKLLAVFGKVPADSIKPEHIRRYMDKRGEQSKTQANHEKSSMSRVYSWGYERGYVKANPCAGVSKFKAKNRERYVTDKEYQAVLSVAPLPVFIAMEIAYLCAARVSDVLSLKWEQIGNDGIFIQQGKTGKKQIKAWSPRLQAAIEKAKQLPTSAYVISNQYGNRYMYKGFNEMWVEARNRAGKISGILTDFTFHDLKAKGISDYEGSSRDKQLFSGHKTEGQVLIYDRKVKVSPTLDVPLPENIPRKYSK | not soluble |
| MTFNHKKMEPKWQQYWSEHNTFKTTEDKNKENFYALDMFPYPSGAGLHVGHPEGYTATDILSRMKRMQGKNVLHPIGWDAFGLPAEQYAIDTGNDPEEFTALNIANFTRQIKSLGFSYDWDREINTTDPEYYKWTQWIFEKLYENGLAYEAEIAVNWCPALGTVLANEEVIDGKSERGGFPVFRKPMRQWMLKITAYADRLLDDLDLVDWPENIKDMQRNWIGRSEGAEVTFKIKDSDETFNVFTTRPDTLFGATYTVFAPEHELIEKITTPEQKEAVEAYKKQVELKSELERTDLAKDKTGVFTGAYAINPINGEEVPIWIADYVLIQYGTGAIMAVPAHDERDFEFAQQFGLNIRPVLEGGDVTKEAFTGDGPHINSDFLNGLAKAEAITAAIDWLEKEGIGSRKITYRLRDWLFSRQRYWGEPIPVIHWEDGETTLVPEEELPLLLPKATEIKPSGTGESPLANLHDWVNVTDENGRKGRRETNTMPQWAGSSWYFLRYIDPKNSEAIADKEKLAEWLPVDVYIGGAEHAVLHLLYARFWHKFLYDIGVVPTKEPFQKLFNQGMILGENNEKMSKSRGNVVNPDEVVEKYGADTLRLYEMFMGPLEASIAWNENGLEGARKFLDRIWRLLVTEEGTLAEKVTTDANANLEKAYHHMVKTVTNHYENLRFNTGISQLMIFINEAYKQDTIPKQYVEGFVQLLSPIAPHLAEELWEILGHTETISYVAWPTYDETKLVEDEVEIVLQVNGKVKSKITVAKSLGKEELEKIAQEDNKMKENLEGKTIRKVIVVPGKLVNIVAN | not soluble |
| MTFQASGTTGITTLTVTEECRVQVGNVTATLARSKLKDDTAIGVIGVTALGCNGLQAALQADPDNYDATNLYMTSRNHDKLNVKLKATDGSSWTYGNGVFYKTEGGNWGGHVGISVDGNQTDKPTGEYTLNLTGGYWTNDNKQTFQASGTTGITTLTLEHHHHHH | soluble |
| MTFTASSSSCAITESPVVVALDYHERDKALAFVDKIDPRDCRLKVGKEMFTLFGPQLVRDLQQRGFDVFLDLKFHDIPNTTARAVAAAADLGVWMVNVHASGGARMMAAARDALAPFSKDAPLLIAVTVLTSMETSDLHDLGVTLSPAEHAERLARLTQQCGLDGVVCSAQEAVRFKQAFGAAFKLVTPGIRPAGSEAGDQRRIMTPEQALSAGVDYMVIGRPVTQSVDPAQTLKDINASLKREA | not soluble |
| MTFTGLPPEDVPALMTGAVIPHPSVAGRADAYLPSPCIQNHAANLAFLPDGTLSCVWFGGTMEGMRDISIYMSRLPPGSGRWSEPEKMSDDPEKSEQNPLIFNAPDGKTWLLYTSQTSGNQDGSIVKCRISDDGGKTFGPVQILCDSPGTFVRQQIVVNDRGDWLLPIFRCVGLEGQRWSGDADTAAVLISRDGGASWQMRDIPDSIGAVHMNILPLGGCEMIAFYRNRFAETILSSRSADGGETWSPPEPTELPNNNSSIQATVLDNGGIAMVYNHSNATMSDARRQSLYDEIEGDECGENAAVVADAGRKAVWGVPRAPLSLAISRDGGRTFPHRIDLDTGDGFCLSNNSKDSLNREFSYPSVIEGSDGTLHVAYTYYRRALEHHHHHH | not soluble |
| MTGHWSYCDDDECGPNRWPTGQHQSPINIDLGEVERKDTHDGIKFVNYDHPIQGDIVNNGHSVQMTPELRSEHPEIYGGGLDQVYRLVQYHFHWGENDNEGSEHTLGGLRYPAELHLVHQGVEDPGKLAVVGVFLQLGKEGKALSNEERVLGKLCNPETVTRVENVRLSEKLPANKRSFWRYEGSLTTPPCSEIVTWTIFTEPVTVTHDQLELFRQVQDIEKRPIKKNYRPTQNLNDRKIVHIVAN | not soluble |
| MTGILDSVNQRTQLVGQNRLELLTFRLMGRQRYGINVFKVKEVLQCPKLTSMPNLHPLVKGIAHIRGHTVSVIDLSLAIGGRPTTDIDKCFVVIAEFNRTIQAFLVSSVERIINMHWEAILPPPDGAGKAHYLTAVTNIDNELVEILDVEKILAEIAPVDETMDSTIGEEIAQAEQEKPIVR | not soluble |
| MTGQPSTPVRPGSVVRTVRRHRGGRSATVQDMVAAEMPVAFNYNGVPFAVMMATPEDLEDFALGFSLSEGIVDHPQDLRVVAVDTFLEGASLQIEIPPERAAALDQRRRNLDGRSGCGVCGNESIEAVLRVPPVLQSALRIDVDALARALDALHARQPIAAQTGAVHAAGWADAQGMVQLVREDVGRHNALDKLIGALARARVDATQGFAVVTSRASYEMAMKAAQARIPLLAAISAPTALAISLADSAGLTLIGFARDHDCVVYSHPQRLDLGVAVGEPALEHHHHHH | not soluble |
| MTGSQKLILTGRPFLHHQGIINQVSTVTKVIHHELEVAASADDIWTVYSWPGLAKHLPDLLPGAFEKLEIIGDGGVGTILDMTFVPGEFPHEYKEKFILVDNEHRLKKVQMIEGGYLDLGVTYYMDTIHVVPTGKDSCVIKSSTEYHVKPEFVKIVEPLITTGPLAAMADAISKLVLEHKSKSNSDEIEAAIITVHHHHHH | soluble |
